Test results as given in US20200017592A1 (Regeneron, published 2020).
Substitutions are numbered along the chain they refer to. One block for each binder: values may come before it.

Experiments:
[1] = molecular target: T1, human IL-36R extracellular domain expressed with a C-terminal myc-myc-hexahistidine tag (hIL-36R-MMH) (human, UniProt Q9HB29 20-337); experiment: SPR Biacore T200, mAb captured on anti-hFc, 37C, PBS-T pH 7.4 running buffer
T1 construct: also called Human IL-36R-MMH; REGN2105
Description: (§1) Additional binding experiments were performed to determine the effect of pH on the rate of dissociation of IL-36R bound to purified anti-IL-36R antibodies, which was determined using a real-time surface plasmon resonance biosensor using a Biacore T200 instrument. The Biacore sensor surface was first derivatized by amine coupling with a monoclonal mouse anti-human Fc antibody (GE, # BR-1008-39) to capture anti-IL-36R antibodies. […] Different concentrations of hIL-36R-MMH and mfIL-36R-MMH prepared in PBS-T, pH7.4 buffer (ranging from 100 nM to 11.11 nM, 3-fold dilutions) were injected over the anti-IL-36R antibody captured surface for 4 minutes at a flow rate of 50 μL/minute and their dissociation in two running buffers, PBS-T, pH7.4 and PBS-T, pH 6.0, was monitored for 10 minutes. All of these binding kinetics experiments were performed at 25° C. and 37° C. Kinetic dissociation constant (kd) were determined by fitting the real-time sensorgrams to a 1:1 binding model using Scrubber 2.0c curve fitting software. Binding dissociative half-lives (t_{1/2}) were calculated from kd as: […]

[2] = molecular target: T2, human IL-36R extracellular domain expressed with a C-terminal mouse IgG2a Fc tag (hIL-36R-mFc) (human; mouse, UniProt Q9HB29 20-337); experiment: SPR Biacore 4000, mAb captured on anti-hFc, 37C
T2 construct: not shown: mouse IgG2a Fc, E98-K330
T2 sequence (looked up): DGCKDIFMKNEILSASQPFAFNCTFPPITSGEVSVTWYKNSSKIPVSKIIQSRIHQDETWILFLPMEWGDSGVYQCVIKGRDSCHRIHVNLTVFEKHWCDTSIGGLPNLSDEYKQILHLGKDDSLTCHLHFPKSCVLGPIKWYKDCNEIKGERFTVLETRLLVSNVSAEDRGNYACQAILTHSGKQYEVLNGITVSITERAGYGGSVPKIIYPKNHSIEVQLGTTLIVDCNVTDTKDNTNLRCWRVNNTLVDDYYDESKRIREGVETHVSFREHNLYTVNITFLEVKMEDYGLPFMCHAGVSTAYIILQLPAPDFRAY
Description: (§2) Equilibrium dissociation constants (KD values) for IL-36R binding to purified anti-IL-36R antibodies were determined using a real-time surface plasmon resonance biosensor using a Biacore 4000 instrument. The Biacore sensor surface was first derivatized by amine coupling with a monoclonal mouse anti-human Fc antibody (GE, # BR-1008-39) to capture anti-IL-36R monoclonal antibodies. All binding studies were performed in 0.01 M Hepes pH 7.4, 0.15 M NaCl, 3 mM EDTA, and 0.05% v/v Surfactant Tween-20 (HBS-ET running buffer) at 25° C. and 37° C. Different concentrations of IL-36R reagents, human IL-36R extracellular domain expressed with a C-terminal myc-myc-hexahistidine tag (hIL-36R-MMH), Macaca fascicularis IL-36R extracellular domain expressed with a C-terminal myc-myc-hexahistidine tag (mfIL-36R-MMH: mROR1 signal sequence (M1-A29). Macaca fascicularis IL36R_ecto domain (D20-A336).mycmycHis6), human IL-36R extracellular domain expressed with a C-terminal mouse IgG2a Fc tag (hIL-36R-mFc: mROR1 signal sequence (M1-A29)-human IL36R (D20-Y337)-mouse IgG2aFc (E98-K330)) or an in-line fusion protein of human IL-36R extracellular domain and IL1RAcP extracellular domain expressed with mouse IgG2a Fc tag (hIL-36R-Trap-mFc: mROR1 signal sequence (M1-A29)-human IL36R ecto domain (D20-Y337)-human IL1RacP ecto domain(S21-E359)-mouse IgG2aFc) in HBS-ET running buffer (ranging from 100 nM to 3.7 nM, 3-fold dilutions) were injected over the anti-IL-36R antibody captured surface for 4 minutes at a flow rate of 30 μL/minute and their dissociation in HBS-ET running buffer was monitored for 10 minutes. Kinetic association rate constant (kₐ) and dissociation rate constant (kd) were determined by fitting the real-time sensorgrams to a 1:1 binding model using Scrubber 2.0c curve fitting software. Binding dissociation equilibrium constants (KD) and dissociative half-lives (t_{1/2}) were calculated from the kinetic rate constants as: […]

[3] = molecular target: T3, in-line fusion protein of human IL-36R extracellular domain and IL1RAcP extracellular domain expressed with … (human; mouse, UniProt Q9HB29 20-337; Q9NPH3 21-359, limits assumed); experiment: SPR Biacore 4000, mAb captured on anti-hFc, 37C
T3 construct: not shown: mouse IgG2a Fc
T3 sequence (looked up): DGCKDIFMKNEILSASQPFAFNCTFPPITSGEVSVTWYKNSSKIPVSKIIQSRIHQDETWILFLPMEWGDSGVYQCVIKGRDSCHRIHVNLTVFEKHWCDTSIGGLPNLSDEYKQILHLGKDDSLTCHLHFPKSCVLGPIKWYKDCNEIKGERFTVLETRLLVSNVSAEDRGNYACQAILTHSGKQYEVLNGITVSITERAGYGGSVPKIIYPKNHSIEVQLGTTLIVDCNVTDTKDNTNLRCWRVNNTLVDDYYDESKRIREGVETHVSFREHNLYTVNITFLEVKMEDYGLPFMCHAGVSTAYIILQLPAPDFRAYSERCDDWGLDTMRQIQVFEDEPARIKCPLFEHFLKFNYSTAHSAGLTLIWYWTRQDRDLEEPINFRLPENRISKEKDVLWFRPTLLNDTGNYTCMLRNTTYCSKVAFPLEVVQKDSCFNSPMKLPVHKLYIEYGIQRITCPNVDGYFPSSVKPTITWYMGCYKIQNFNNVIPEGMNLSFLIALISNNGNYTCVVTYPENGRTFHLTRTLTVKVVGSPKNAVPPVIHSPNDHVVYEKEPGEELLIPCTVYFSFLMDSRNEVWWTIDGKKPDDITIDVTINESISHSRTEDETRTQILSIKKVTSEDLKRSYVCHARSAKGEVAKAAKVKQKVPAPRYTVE
Description: as §2

[4] = molecular target: T1, human IL-36R extracellular domain …; experiment: SPR Biacore T200, mAb captured on anti-hFc, 25C, PBS-T pH 6.0 running buffer
Description: as §1

[5] = molecular target: T1, human IL-36R extracellular domain …; experiment: SPR Biacore T200, mAb captured on anti-hFc, 25C, PBS-T pH 7.4 running buffer
Description: as §1

[6] = molecular target: T1, human IL-36R extracellular domain …; experiment: SPR Biacore T200, mAb captured on anti-hFc, 37C, PBS-T pH 6.0 running buffer
Description: as §1

[7] = molecular target: T2, human IL-36R extracellular domain …; experiment: SPR Biacore 4000, mAb captured on anti-hFc, 25C
Description: as §2

[8] = molecular target: T3, in-line fusion protein of human IL-36R …; experiment: SPR Biacore 4000, mAb captured on anti-hFc, 25C
Description: as §2

100 nM hIL-36R-MMH Bound (RU) [1]: 94 RU
koff [1]: 0.00187 s⁻¹
t1/2 [1]: 6 min
100 nM hIL-36R-mFc Bound (RU) [2]: 173 RU
Kd [2]: 1020 pM
koff [2]: 0.000222 s⁻¹
kon [2]: 217000 M⁻¹ s⁻¹
t1/2 [2]: 52 min
100 nM hIL-36R-Trap-mFc Bound (RU) [3]: 195 RU
Kd [3]: 1700 pM
koff [3]: 0.000283 s⁻¹
kon [3]: 166000 M⁻¹ s⁻¹
t1/2 [3]: 41 min
100 nM Human IL-36R-MMH Bound (RU) [4]: 69 RU
koff [4]: 0.000972 s⁻¹
t1/2 [4]: 12 min
100 nM Human IL-36R-MMH Bound (RU) [5]: 80 RU
koff [5]: 0.000545 s⁻¹
t1/2 [5]: 21 min
100 nM hIL-36R-MMH Bound (RU) [6]: 85 RU
koff [6]: 0.0039 s⁻¹
t1/2 [6]: 3 min
100 nM hIL-36R-mFc Bound (RU) [7]: 121 RU
Kd [7]: 526 pM
koff [7]: 0.000109 s⁻¹
kon [7]: 207000 M⁻¹ s⁻¹
t1/2 [7]: 106 min
100 nM hIL-36R-Trap-mFc Bound (RU) [8]: 134 RU
Kd [8]: 636 pM
koff [8]: 0.0001 s⁻¹
kon [8]: 158000 M⁻¹ s⁻¹
t1/2 [8]: 115 min
B1: H4H14760P2 (antibody, human IgG4 S228P, kappa, V domains shown)
VH: QVQLVESGGGVVQPGKSLRLSCAASGFTFSNYGIHWVRQAPGKGLEWVAIILYDGSNQHYADSVKGRFTISRDNSKNTLYLQMNNLRAEDTAVYYCARDLDLWSGYYTNGDGMDVWGQGTTVTVSS
VL: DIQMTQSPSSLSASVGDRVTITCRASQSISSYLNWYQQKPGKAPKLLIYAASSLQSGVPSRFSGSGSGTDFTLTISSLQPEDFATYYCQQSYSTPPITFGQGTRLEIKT
notes: Fully human anti-IL-36R antibody

100 nM hIL-36R-MMH Bound (RU) [1]: 20 RU
koff [1]: 0.00121 s⁻¹
t1/2 [1]: 10 min
100 nM hIL-36R-mFc Bound (RU) [2]: 96 RU
Kd [2]: 2310 pM
koff [2]: 0.000122 s⁻¹
kon [2]: 52700 M⁻¹ s⁻¹
t1/2 [2]: 95 min
100 nM hIL-36R-Trap-mFc Bound (RU) [3]: 99 RU
Kd [3]: 2960 pM
koff [3]: 0.000143 s⁻¹
kon [3]: 48400 M⁻¹ s⁻¹
t1/2 [3]: 81 min
100 nM Human IL-36R-MMH Bound (RU) [4]: 18 RU
koff [4]: 0.000787 s⁻¹
t1/2 [4]: 15 min
100 nM Human IL-36R-MMH Bound (RU) [5]: 20 RU
koff [5]: 0.000738 s⁻¹
t1/2 [5]: 16 min
100 nM hIL-36R-MMH Bound (RU) [6]: 17 RU
koff [6]: 0.00169 s⁻¹
t1/2 [6]: 7 min
100 nM hIL-36R-mFc Bound (RU) [7]: 77 RU
Kd [7]: 1630 pM
koff [7]: 0.000101 s⁻¹
kon [7]: 62200 M⁻¹ s⁻¹
t1/2 [7]: 114 min
100 nM hIL-36R-Trap-mFc Bound (RU) [8]: 85 RU
Kd [8]: 2240 pM
koff [8]: 0.00011 s⁻¹
kon [8]: 48900 M⁻¹ s⁻¹
t1/2 [8]: 105 min
B2: H4H14734P2 (antibody, human IgG4 S228P, kappa, V domains shown)
VH: EVQLVESGGGLVKPGGSLRLSCAASGFIFSNAWMNWVRQAPGKGLAWVGRIKTETDGGTTDYAAPVKGRFTISRDDSKNTLYLQMNSVKTEDTAVYYCTGGYSYGDDSSSWNEGYYYYGMDVWGQGTTVTVSS
VL: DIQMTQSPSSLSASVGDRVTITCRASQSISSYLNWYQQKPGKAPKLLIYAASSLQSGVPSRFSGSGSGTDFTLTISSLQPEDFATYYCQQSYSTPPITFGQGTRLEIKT
notes: Fully human anti-IL-36R antibody; also called H14H14734P2

100 nM hIL-36R-MMH Bound (RU) [1]: 113 RU
koff [1]: 0.00129 s⁻¹
t1/2 [1]: 9 min
100 nM hIL-36R-mFc Bound (RU) [2]: 235 RU
Kd [2]: 243 pM
koff [2]: 0.00015 s⁻¹
kon [2]: 616000 M⁻¹ s⁻¹
t1/2 [2]: 77 min
100 nM hIL-36R-Trap-mFc Bound (RU) [3]: 281 RU
Kd [3]: 374 pM
koff [3]: 0.000196 s⁻¹
kon [3]: 523000 M⁻¹ s⁻¹
t1/2 [3]: 59 min
100 nM Human IL-36R-MMH Bound (RU) [4]: 98 RU
koff [4]: 0.000887 s⁻¹
t1/2 [4]: 13 min
100 nM Human IL-36R-MMH Bound (RU) [5]: 105 RU
koff [5]: 0.000597 s⁻¹
t1/2 [5]: 19 min
100 nM hIL-36R-MMH Bound (RU) [6]: 109 RU
koff [6]: 0.0026 s⁻¹
t1/2 [6]: 4 min
100 nM hIL-36R-mFc Bound (RU) [7]: 167 RU
Kd [7]: 173 pM
koff [7]: 9.97e-05 s⁻¹
kon [7]: 575000 M⁻¹ s⁻¹
t1/2 [7]: 116 min
100 nM hIL-36R-Trap-mFc Bound (RU) [8]: 202 RU
Kd [8]: 212 pM
koff [8]: 0.000103 s⁻¹
kon [8]: 485000 M⁻¹ s⁻¹
t1/2 [8]: 113 min
B3: H4H14757P (antibody, human IgG4 S228P, kappa, V domains shown)
VH: EVQLVESGGGLVQPGRSLRLSCTASGFTFDDYAMHWVRQAPGKGLEWVSGIRWNGGSIGYVDSVKGRFTISRDNAKKSLHLQMNSLKTEDTALYYCAKDIGDILTGFYGEYGMDVWGQGTTVTVSS
VL: DIQMTQSPSSLSASEGDRVTITCRASQSISSYLNWYQQKAGKAPNLLIYAASSLQSGVPSRFSGSGSGTEYTLTISSLQPEDFATYYCQQSYIIPYTFGQGTKLEIKR
notes: as for B1

100 nM hIL-36R-MMH Bound (RU) [1]: 126 RU
koff [1]: 0.00226 s⁻¹
t1/2 [1]: 5 min
100 nM hIL-36R-mFc Bound (RU) [2]: 210 RU
Kd [2]: 517 pM
koff [2]: 0.000286 s⁻¹
kon [2]: 554000 M⁻¹ s⁻¹
t1/2 [2]: 40 min
100 nM hIL-36R-Trap-mFc Bound (RU) [3]: 251 RU
Kd [3]: 777 pM
koff [3]: 0.000363 s⁻¹
kon [3]: 468000 M⁻¹ s⁻¹
t1/2 [3]: 32 min
100 nM Human IL-36R-MMH Bound (RU) [4]: 103 RU
koff [4]: 0.0018 s⁻¹
t1/2 [4]: 6 min
100 nM Human IL-36R-MMH Bound (RU) [5]: 108 RU
koff [5]: 0.00112 s⁻¹
t1/2 [5]: 10 min
100 nM hIL-36R-MMH Bound (RU) [6]: 120 RU
koff [6]: 0.00339 s⁻¹
t1/2 [6]: 3 min
100 nM hIL-36R-mFc Bound (RU) [7]: 161 RU
Kd [7]: 309 pM
koff [7]: 0.000163 s⁻¹
kon [7]: 526000 M⁻¹ s⁻¹
t1/2 [7]: 71 min
100 nM hIL-36R-Trap-mFc Bound (RU) [8]: 197 RU
Kd [8]: 413 pM
koff [8]: 0.00018 s⁻¹
kon [8]: 436000 M⁻¹ s⁻¹
t1/2 [8]: 64 min
B4: H4H14758P (antibody, human IgG4 S228P, kappa, V domains shown)
VH: EVQLVESGGGLVQPGRSLRLSCAASGFTFDDYAMHWVRQAPGKGLEWVSSVRWNGGIIGYADSVKGRFTISRDNAKNSLYLQMNSLRPEDTALYYCAKDIGDVLTGYYGEYGMDVWGQGTTVTVSS
VL: B3 VL with E15V, T22A, S30T, S31T, A40P, N45K, E70D, Y71F, I94S
notes: as for B1
